According to publication PMC7325957:

Biological target: NttE from L. pneumophila strain 130b, His6-tagged (residues 1 to 269; minus its N-terminal signal sequence) (Legionella pneumophila strain 130b)
Assay: SEC-SAXS

For “NttE from L. pneumophila strain 130b, His6-tagged (residues 1 to 269; minus its N-terminal signal sequence) (natural protein)”, the stoichiometry N was 2.
